Source: PMC3104517 (Nature Communications, 2011)

B1: AnxA5 triple mutant R16E/K27E/K56E (natural protein, rat)
chain: ALRGTVTDFSGFDGEADAEVLRKAMEGLGTDEDSILNLLTARSNAQRQQIAEEFETLFGRDLVNDMKSELTGKFEKLIVALMKPSRLYDAYELKHALKGAGTDEKVLTEIIASRTPEELRAIKQAYEEEYGSNLEDDVVGDTSGYYQRMLVVLLQANRDPDTAIDDAQVELDAQALFQAGELKWGTDEEKFITILGTRSVSHLRRVFDKYMTISGFQIEETIDRETSGNLENLLLAVVKSIRSIPAYLAETLYYAMKGAGTDDHTLIRVIVSRSEIDLFNIRKEFRKNFATSLYSMIKGDTSGDYKKALLLLCGGEDD
B2: AnxA5 single mutant R23E (natural protein, rat)
chain: ALRGTVTDFSGFDGRADAEVLEKAMKGLGTDEDSILNLLTARSNAQRQQIAEEFKTLFGRDLVNDMKSELTGKFEKLIVALMKPSRLYDAYELKHALKGAGTDEKVLTEIIASRTPEELRAIKQAYEEEYGSNLEDDVVGDTSGYYQRMLVVLLQANRDPDTAIDDAQVELDAQALFQAGELKWGTDEEKFITILGTRSVSHLRRVFDKYMTISGFQIEETIDRETSGNLENLLLAVVKSIRSIPAYLAETLYYAMKGAGTDDHTLIRVIVSRSEIDLFNIRKEFRKNFATSLYSMIKGDTSGDYKKALLLLCGGEDD
B3: AnxA5 single mutant R16E (natural protein, rat)
chain: ALRGTVTDFSGFDGEADAEVLRKAMKGLGTDEDSILNLLTARSNAQRQQIAEEFKTLFGRDLVNDMKSELTGKFEKLIVALMKPSRLYDAYELKHALKGAGTDEKVLTEIIASRTPEELRAIKQAYEEEYGSNLEDDVVGDTSGYYQRMLVVLLQANRDPDTAIDDAQVELDAQALFQAGELKWGTDEEKFITILGTRSVSHLRRVFDKYMTISGFQIEETIDRETSGNLENLLLAVVKSIRSIPAYLAETLYYAMKGAGTDDHTLIRVIVSRSEIDLFNIRKEFRKNFATSLYSMIKGDTSGDYKKALLLLCGGEDD
B4: AnxA5 double mutant K27E/K191E (natural protein, rat)
chain: ALRGTVTDFSGFDGRADAEVLRKAMEGLGTDEDSILNLLTARSNAQRQQIAEEFKTLFGRDLVNDMKSELTGKFEKLIVALMKPSRLYDAYELKHALKGAGTDEKVLTEIIASRTPEELRAIKQAYEEEYGSNLEDDVVGDTSGYYQRMLVVLLQANRDPDTAIDDAQVELDAQALFQAGELKWGTDEEEFITILGTRSVSHLRRVFDKYMTISGFQIEETIDRETSGNLENLLLAVVKSIRSIPAYLAETLYYAMKGAGTDDHTLIRVIVSRSEIDLFNIRKEFRKNFATSLYSMIKGDTSGDYKKALLLLCGGEDD
B5: AnxA5 triple mutant R23E/K27E/K191E (natural protein, rat)
chain: ALRGTVTDFSGFDGRADAEVLEKAMEGLGTDEDSILNLLTARSNAQRQQIAEEFKTLFGRDLVNDMKSELTGKFEKLIVALMKPSRLYDAYELKHALKGAGTDEKVLTEIIASRTPEELRAIKQAYEEEYGSNLEDDVVGDTSGYYQRMLVVLLQANRDPDTAIDDAQVELDAQALFQAGELKWGTDEEEFITILGTRSVSHLRRVFDKYMTISGFQIEETIDRETSGNLENLLLAVVKSIRSIPAYLAETLYYAMKGAGTDDHTLIRVIVSRSEIDLFNIRKEFRKNFATSLYSMIKGDTSGDYKKALLLLCGGEDD
B6: AnxA5 triple mutant R16E/K27E/K191E (natural protein, rat)
chain: ALRGTVTDFSGFDGEADAEVLRKAMEGLGTDEDSILNLLTARSNAQRQQIAEEFKTLFGRDLVNDMKSELTGKFEKLIVALMKPSRLYDAYELKHALKGAGTDEKVLTEIIASRTPEELRAIKQAYEEEYGSNLEDDVVGDTSGYYQRMLVVLLQANRDPDTAIDDAQVELDAQALFQAGELKWGTDEEEFITILGTRSVSHLRRVFDKYMTISGFQIEETIDRETSGNLENLLLAVVKSIRSIPAYLAETLYYAMKGAGTDDHTLIRVIVSRSEIDLFNIRKEFRKNFATSLYSMIKGDTSGDYKKALLLLCGGEDD
B7: AnxA5 single mutant K56E (natural protein, rat)
chain: ALRGTVTDFSGFDGRADAEVLRKAMKGLGTDEDSILNLLTARSNAQRQQIAEEFETLFGRDLVNDMKSELTGKFEKLIVALMKPSRLYDAYELKHALKGAGTDEKVLTEIIASRTPEELRAIKQAYEEEYGSNLEDDVVGDTSGYYQRMLVVLLQANRDPDTAIDDAQVELDAQALFQAGELKWGTDEEKFITILGTRSVSHLRRVFDKYMTISGFQIEETIDRETSGNLENLLLAVVKSIRSIPAYLAETLYYAMKGAGTDDHTLIRVIVSRSEIDLFNIRKEFRKNFATSLYSMIKGDTSGDYKKALLLLCGGEDD
B8: AnxA5 single mutant K191E (natural protein, rat)
chain: ALRGTVTDFSGFDGRADAEVLRKAMKGLGTDEDSILNLLTARSNAQRQQIAEEFKTLFGRDLVNDMKSELTGKFEKLIVALMKPSRLYDAYELKHALKGAGTDEKVLTEIIASRTPEELRAIKQAYEEEYGSNLEDDVVGDTSGYYQRMLVVLLQANRDPDTAIDDAQVELDAQALFQAGELKWGTDEEEFITILGTRSVSHLRRVFDKYMTISGFQIEETIDRETSGNLENLLLAVVKSIRSIPAYLAETLYYAMKGAGTDDHTLIRVIVSRSEIDLFNIRKEFRKNFATSLYSMIKGDTSGDYKKALLLLCGGEDD
B9: AnxA5 single mutant K27E (natural protein, rat)
chain: ALRGTVTDFSGFDGRADAEVLRKAMEGLGTDEDSILNLLTARSNAQRQQIAEEFKTLFGRDLVNDMKSELTGKFEKLIVALMKPSRLYDAYELKHALKGAGTDEKVLTEIIASRTPEELRAIKQAYEEEYGSNLEDDVVGDTSGYYQRMLVVLLQANRDPDTAIDDAQVELDAQALFQAGELKWGTDEEKFITILGTRSVSHLRRVFDKYMTISGFQIEETIDRETSGNLENLLLAVVKSIRSIPAYLAETLYYAMKGAGTDDHTLIRVIVSRSEIDLFNIRKEFRKNFATSLYSMIKGDTSGDYKKALLLLCGGEDD

Target: the molecule itself
Experiment: 2D crystallisation on lipid monolayers, negative-stain TEM

Binding result, binds:
B1
B2
B3
B4
B5
B6
B7
B8
B9
